Data from publication PMC2883074 (Molecular Microbiology, 2010).
Where two headings read alike, the source gives them in different places.

Columns and labels:
[1] = molecular target: the molecule itself; experiment: SEC
[2] = molecular target: the molecule itself; experiment: SEC; remark: listed apart in the source
[3] = molecular target: the molecule itself; experiment: crystal structure

Row | Protein | stoichiometry N [1] | other results
1 | EcMinEΔN (residues 32-88 of EcMinE) (domain or fragment, E. coli, UniProt P0A734 32-88, looked up) SDAEPHYLPQLRKDILEVICKYVQIDPEMVTVQLEQKDGDISILELNVTLPEAEELK | 4 | –
2 | TLNLPYMEEMRKEIIAVIQKYTKSSDIHFKTLDSNQSVETIEVEIILPR (domain or fragment, Helicobacter pylori, UniProt O25099 29-77, looked up) [HpMinEΔN (residues 29-77 of HpMinE)] | 3 | –
3 | full-length Helicobacter pylori MinE (natural protein, UniProt O25099 1-77, looked up) MSLFDFFKNKGSAATATDRLKLILAKERTLNLPYMEEMRKEIIAVIQKYTKSSDIHFKTLDSNQSVETIEVEIILPR | – | stoichiometry N [2]: 2
4 | Selenomethionine (Se-Met)-labelled HpMinE (natural protein, Helicobacter pylori, UniProt O25099 1-77, looked up, selenomethionine (Se-Met-labelled)) MSLFDFFKNKGSAATATDRLKLILAKERTLNLPYMEEMRKEIIAVIQKYTKSSDIHFKTLDSNQSVETIEVEIILPR | – | binding result [3]: binds
